This note sets out measurements from US20240076386A1 (Pfizer, published 2024).

Read-outs that look alike come from different tables or passages of the source. Bounds are passed on as bounds.

The target in assay [1] is T1, cynomolgus monkey E-selectin extracellular domain with 10 His purification tail (cynomolgus monkey, UniProt P16581 22-554 (human entry)).
T1 construct: also called cynomolgus E-selectin; truncated cynomolgus monkey E-selectin
T1 chain: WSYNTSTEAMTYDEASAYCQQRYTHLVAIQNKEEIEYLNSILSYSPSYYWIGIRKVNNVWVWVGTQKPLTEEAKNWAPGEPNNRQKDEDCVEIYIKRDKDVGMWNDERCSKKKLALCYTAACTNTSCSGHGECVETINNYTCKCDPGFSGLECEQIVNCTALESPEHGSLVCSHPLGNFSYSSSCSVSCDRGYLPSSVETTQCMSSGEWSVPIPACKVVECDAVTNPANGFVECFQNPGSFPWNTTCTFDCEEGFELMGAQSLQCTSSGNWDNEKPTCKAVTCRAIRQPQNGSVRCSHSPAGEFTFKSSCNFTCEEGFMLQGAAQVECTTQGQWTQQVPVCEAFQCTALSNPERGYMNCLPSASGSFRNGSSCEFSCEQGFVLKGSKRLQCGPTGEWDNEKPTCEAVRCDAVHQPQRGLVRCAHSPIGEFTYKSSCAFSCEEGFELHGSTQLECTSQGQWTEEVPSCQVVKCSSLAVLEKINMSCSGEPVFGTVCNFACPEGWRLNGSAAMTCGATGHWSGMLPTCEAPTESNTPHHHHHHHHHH
Description: SPR, antibody captured, E-selectin analyte. The procedure:
(§1) To characterize binding of antibodies to human, cynomolgus monkey, and mouse E-selectin, an antibody was diluted to 0.5 μg/mL in HBS-EP+ and captured by the anti-human IgG immobilized on flow cells 2, 3 and 4 for 30 seconds to 1 minute at a flow rate of 10 μL/minute to achieve a capture level of 70 to 300 RU. Flow cell 1 was used as a reference surface. […] HBS-EP+ buffer cycles collected for each captured antibody were used for double-referencing (Myszka D G. J. Mol. Recognition 1999; 12(5):279-84). At the end of each cycle, the entire anti-IgG surface was regenerated by a 30 second pulse of 3 M MgCl₂ and a 30 second pulse of ionic buffer (1.83 M MgCl₂, 0.92 M Urea, 1.83 M Guanidine HCl, pH 7.4) (Andersson K. Analy. Chem. 1999; 71(13): 2475-81). Kinetic assays were conducted at 25° C. at a collection rate of 10 Hertz (Hz) on a BIAcore™ T200 instrument (GE Healthcare). Rate constants and affinities were determined by fitting the data to a 1:1 binding model in BIAcore™ T200 Evaluation software version 3.0 (GE Healthcare).

Assay [2] has as its target T2, human E-selectin, cell-surface expressed (human, UniProt P16581 22-610).
T2 sequence: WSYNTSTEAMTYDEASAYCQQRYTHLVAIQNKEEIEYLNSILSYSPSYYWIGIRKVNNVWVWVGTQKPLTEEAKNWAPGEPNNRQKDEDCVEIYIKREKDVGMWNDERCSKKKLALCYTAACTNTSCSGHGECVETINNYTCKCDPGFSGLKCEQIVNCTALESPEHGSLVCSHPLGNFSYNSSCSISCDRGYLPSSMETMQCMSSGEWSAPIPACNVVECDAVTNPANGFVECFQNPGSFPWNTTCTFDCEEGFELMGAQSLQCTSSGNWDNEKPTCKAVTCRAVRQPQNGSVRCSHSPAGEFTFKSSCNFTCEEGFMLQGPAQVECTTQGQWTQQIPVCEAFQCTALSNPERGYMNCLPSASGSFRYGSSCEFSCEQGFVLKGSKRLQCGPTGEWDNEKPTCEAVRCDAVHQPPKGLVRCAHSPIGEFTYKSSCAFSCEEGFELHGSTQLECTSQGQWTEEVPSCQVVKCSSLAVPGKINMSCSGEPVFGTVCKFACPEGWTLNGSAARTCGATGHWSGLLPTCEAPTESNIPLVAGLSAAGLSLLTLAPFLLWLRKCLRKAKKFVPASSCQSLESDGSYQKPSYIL
Description: cell-based or functional assay.

Assay [3] has as its target T3, human E-selectin extracellular domain with 10 His purification tail (human, UniProt P16581 22-556).
T3 construct: also called soluable human E-selectin extracellular domain; rhE-Selectin
T3 sequence: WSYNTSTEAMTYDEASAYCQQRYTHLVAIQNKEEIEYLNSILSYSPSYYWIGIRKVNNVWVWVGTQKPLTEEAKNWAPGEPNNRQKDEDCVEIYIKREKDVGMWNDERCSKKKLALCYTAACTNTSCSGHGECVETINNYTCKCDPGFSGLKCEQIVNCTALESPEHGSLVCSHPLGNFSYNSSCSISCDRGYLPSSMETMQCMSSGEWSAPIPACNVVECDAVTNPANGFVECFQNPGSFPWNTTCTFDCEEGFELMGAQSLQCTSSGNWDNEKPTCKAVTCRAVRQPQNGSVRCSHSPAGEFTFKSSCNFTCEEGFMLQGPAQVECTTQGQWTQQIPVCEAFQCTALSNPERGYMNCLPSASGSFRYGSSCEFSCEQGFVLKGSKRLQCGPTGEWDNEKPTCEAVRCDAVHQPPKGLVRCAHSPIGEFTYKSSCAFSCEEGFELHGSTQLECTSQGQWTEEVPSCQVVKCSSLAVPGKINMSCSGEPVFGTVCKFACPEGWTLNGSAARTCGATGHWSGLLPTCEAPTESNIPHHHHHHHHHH
Description: SPR, antibody captured, E-selectin analyte. On the procedure: (§2) All flow cells were blocked with 1M Ethanolamine-HCl (ETH) for 7 minutes at 10 μL/minute. Final immobilization level of the capture antibody was approximately 10,000 resonance units (RU). The running buffer for immobilization and kinetics was HBS-EP+(10 mM 4-(2-hydroxyethyl)-1-piperazineethanesulfonic acid (HEPES) pH 7.4, 150 mM sodium chloride, 3 mM ethylenediaminetetraacetic acid (EDTA), 0.05% (v/v) Tween-20).
as §1
(§3) This was done by first binding the antibody to immobilized anti-human IgG. After antibody capture, dilutions of the E-selectin proteins were flowed over and the association rate constant (ka), disassociation rate constant (kd), t½, and KD values were determined for binding to human and cynomolgus (Table 26).
In general terms: Surface plasmon resonance follows binding to a sensor surface in real time, without labels.

For assay [4], the target named is T1, cynomolgus monkey E-selectin …. Description: SPR, antibody captured, E-selectin analyte. The procedure: as §2, §1, §3

B1: anti-E-selectin antibody 0159 chimera (antibody, human IgG1, kappa, V domains shown)
VH: EVQLQQSGAELGKPGTSVKLSCKVSGYNIRSTYMHWVSQRPGKGLEWIGRIDPANGNTIYAEKFKRKATLTADTSSNTAYMQLSQLKSDDRAIYFCAMEVRVSFEYWGQGVMVTVSS
VL: DIQMTQSPSFLSASVGDRVTINCKASQNINKYLDWYQQKLGEGPKLLIYYTNNLHTGIPSRFSGSGSGTDFTLTISSLQPEDVATYFCLQHDSGYTFGAGTKLELKR
notes: rat VH/VL on effector-null human IgG1 and human kappa
On to B1, for which, in assay [1], binding was characterised by a dissociation constant (Kd) of 244 nM; the koff (in general, the rate constant with which the complex falls apart) amounted to 0.0374 s⁻¹; the kon (in general, the rate constant with which the complex forms) came to 154000 M⁻¹ s⁻¹; the t½ (in general, how long it takes for the measured level to halve) is 18.5 s. For the same molecule, the “static neutralization, HL-60 Cell adhesion CHO-Human E-selectin cells IC50 (nM)” value in assay [2] was > 50 % inhibition at 49.4 nM.

B2: anti-E-selectin antibody 0170 chimera (antibody, human IgG1, kappa, V domains shown)
VH: EVQLQQSGAELGKPGTSVKLSCKVSGYSIRSTYMHWVNQRPGKGLEWVGRIDPANGNTIYAERFKNKATLTADTSSNTAYMQLSQLKSDDTAIYFCAVEILGIFDYWGQGVMVTVSS
VL: DIQMTQSPSFLSASVGDRVTINCKASQNIDKYLDWYQQKLGEAPKLLMYNTNSLHTGIPSRFSGSGSGTDFTLTISSLQPEDVATYFCLQHNSGYTFGAGTKLELKR
notes: as for B1
Consider B2, for which, in assay [1], the Kd (commonly the constant that tells how readily two partners part at equilibrium) was determined as 492 nM, the koff is 0.0564 s⁻¹, the on-rate (kon) came to 115000 M⁻¹ s⁻¹ and the t½ was 12.3 s. Further, the “static neutralization, HL-60 Cell adhesion CHO-Human E-selectin cells IC50 (nM)” value in assay [2] is > 50 % inhibition at 444 nM.

B3: optimized anti-E-selectin antibody 1282 (antibody, human IgG1, kappa, V domains shown)
VH: EVQLVESGGGLVQPGGSLRLSCAASGYAIRSAYMHWVRQAPGKGLEWVARIDPANGNTIYVDSVEGRFTISADNAKNSAYLQMNSLRAEDTAVYYCAMDLYSTSEYWGQGTLVTVSS
VL: DIQMTQSPSSLSASVGDRVTITCKTSQNIERYLNWYQQKPGKAPKLLIYAASSLQSGVPSRFSGSGSGTDFTLTISSLQPEDFATYFCLQDNAWPLTFGQGTKVEIKR
notes: effector-null human IgG1, kappa
In assay [3], B3 registered a Kd of 70.3 nM, a koff of 0.0141 s⁻¹, a kon of 201000 M⁻¹ s⁻¹ and a t½ of 49.3 s. In assay [4], this molecule returned a dissociation constant (Kd) of 78.3 nM, a koff of 0.0176 s⁻¹, a kon of 227000 M⁻¹ s⁻¹ and a t½ of 39.4 s.

B4: optimized anti-E-selectin antibody 1284 (antibody, human IgG1, kappa, V domains shown)
VH: EVQLVESGGGLVQPGGSLRLSCAASGYAIRSAYMHWVRQAPGKGLEWVARIDPANGNTIYVESVEGRFTISADNAKNSAYLQMNSLRAEDTAVYYCAMDLYSTSEYWGQGTLVTVSS
VL: DIQMTQSPSSLSASVGDRVTITCKTSQNIERYLNWYQQKPGKAPKLLIYAASSLQSGVPSRFSGSGSGTDFTLTISSLQPEDFATYFCLQDNAWPLTFGQGTKVEIKR
notes: as for B3
In assay [3], B4 gave a Kd of 65.2 nM, a koff of 0.0145 s⁻¹, a kon of 222000 M⁻¹ s⁻¹ and a t½ of 48 s. For the same molecule, in assay [4], the dissociation constant (Kd) is 76.5 nM, the koff stood at 0.018 s⁻¹, the kon was determined as 236000 M⁻¹ s⁻¹ and the t½ is 38.5 s.

B5: optimized anti-E-selectin antibody 1448 (antibody, human IgG1, kappa, V domains shown)
VH: EVQLVESGGGLVQPGGSLRLSCAASGYAIRSAYMHWVRQAPGKGLEWVARIDPANGNTIYVDSVKERFTISADNAKNSAYLQMNSLRAEDTAVYYCAMDLYSTSEYWGQGTLVTVSS
VL: DIQMTQSPSSLSASVGDRVTITCKTSQNIERYLNWYQQKPGKAPKLLIYAASSLQSGVPSRFSGSGSGTDFTLTISSLQPEDFATYFCLQDNAWPLTFGQGTKVEIKR
notes: as for B3
In the case of B5, in assay [3], binding was characterised by a dissociation constant (Kd) of 60.5 nM, the off-rate (koff) is 0.0126 s⁻¹, the kon came to 210000 M⁻¹ s⁻¹ and the t½ amounted to 55 s. In assay [4], this molecule returned a Kd of 67.8 nM, a dissociation rate constant (koff) of 0.015 s⁻¹, a kon of 222000 M⁻¹ s⁻¹ and a t½ of 46.2 s.

B6: optimized anti-E-selectin antibody 1444 (antibody, human IgG1, kappa, V domains shown)
VH: EVQLVESGGGLVQPGGSLRLSCAASGYAIRSAYMHWVRQAPGKGLEWVARIDPANGNTIYVDSVTGRFTISADNAKNSAYLQMNSLRAEDTAVYYCAMDLYSTSEYWGQGTLVTVSS
VL: DIQMTQSPSSLSASVGDRVTITCKTSQNIERYLNWYQQKPGKAPKLLIYAASSLQSGVPSRFSGSGSGTDFTLTISSLQPEDFATYFCLQDNAWPLTFGQGTKVEIKR
notes: as for B3
In assay [3], B6 displayed a dissociation constant Kd of 61.8 nM, an off-rate constant (koff) of 0.0163 s⁻¹, a kon of 264000 M⁻¹ s⁻¹ and a t½ of 42.7 s. Further, in assay [4], the equilibrium dissociation constant (Kd) came out at 81.5 nM, the off-rate (koff) worked out at 0.0171 s⁻¹, the kon is 211000 M⁻¹ s⁻¹ and the t½ is 40.5 s.

B7: anti-E-selectin antibody 0039 chimera (antibody, human IgG1, kappa, V domains shown)
VH: QVQLKETGPGLVQPTQTLSITCTVSGFSLTGYYMQWVRQTPGKGLEWMGFIRSSGSTEYNSEFKSRLSISRDTSKNQVFLKMNSLKTEDTGVYYCARCPYKYSSFVYVGVMDAWGQGAPVTVSS
VL: EIVMTQSPTSMSTSIGERVTLNCKASQTVGINVDWYQQTPGQPPKLLIYGASNRHTGVPDRFTGSGFGRDFTLTISNVEAEDLAVYCCLQYGSIPHTFGPGTKLELKR
notes: as for B1
Regarding B7, in assay [1], binding was characterised by a dissociation constant (Kd) of 45.8 nM, the koff was found to be 0.00377 s⁻¹, the kon worked out at 82400 M⁻¹ s⁻¹ and the t½ was determined as 184 s.

B8: anti-E-selectin antibody 0158 chimera (antibody, human IgG1, kappa, V domains shown)
VH: QVQLKESGPGLVQPSETLSLTCTVSGFSISTYNVHWLRQPPGKGLEWMGMMWSGGSPDYNSALKSRLSISRDTSKNQVFLKMNSLQSEDTTTYYCARWGGGFDYWGQGVMVTVSS
VL: DIVLTQSPTTLSVTPGETVSLSCRASHSIGTNLHWYQQKTNESPRLLIKFTSQSISGIPSRFSASGSGTDFTLNINNVEFDDVSSYFCQQTQSWPLTFGSGTKLEIKR
notes: as for B1
As for B8, the “static neutralization, HL-60 Cell adhesion CHO-Human E-selectin cells IC50 (nM)” value in assay [2] was > 50 % inhibition at 16.5 nM.

B9: anti-E-selectin antibody 0180 chimera (antibody, human IgG1, kappa, V domains shown)
VH: EVQLQQSGAELGKPGTSVKLSCKVSGYKIRSSYMHWVNQRPGKGLEWIGRIDPANGNTIYGDKFKSKATLTSDTSSNTAYIQLSQLKSDDTAIYFCAIDIGTTFDYWGQGVMVTVSS
VL: DIQMTQSPSFLSASVGDRVTINCKASQHINRYLNWYQQKLGEAPKLLIYDANNLQTGIPSRFSGSGSGTDFTLTISSLQPEDVATYFCLQHNSWPNTFGAGTKLELKR
notes: as for B1
Consider B9, for which, in assay [1], the Kd came to 3140 nM, the koff was 0.749 s⁻¹, the kon stood at 245000 M⁻¹ s⁻¹ and the t½ was determined as 0.93 s. Further, the “static neutralization, HL-60 Cell adhesion CHO-Human E-selectin cells IC50 (nM)” value in assay [2] is > 50 % inhibition at 444 nM.
